Experimental data as given in patent US6011146A, “Altered major histocompatibility complex (MHC) determinant and methods of using the determinant” (Institut Pasteur, priority 1995, dated 2000).
Several values for one entry are separate records, joined by “and”; a condition that tells them apart may be missing. Equal values may be shown once.

Assays:
SC-K^d -15 (mouse) = SC-K^d -15 (mouse) (UniProt P01887)
[1] = molecular target: K^d molecules isolated from the spleen of BALB/c mice (mouse, UniProt P01887); experiment: direct peptide binding assay, peptide coated on plastic, 125I-labeled K^d

| Molecule | cpm bound (SC-K^d -15 (mouse)) | binding result [1] |
| --- | --- | --- |
| influenza NPR- 147-158 (peptide) | 214 cpm and 171 cpm | – |
| TYQRTRALVTG [influenza NPR- 147-158] | – | no binding (tested: 10 µg/ml; pH 9.6) |
